# Measured values as given in the nanobody polyreactivity screen of Harvey et al. (2022).
# Experiment: yeast display, Sf9 membrane polyspecificity reagent, FACS + sequencing; frameworks hold sequencing errors
# How it was run: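 Polyreactivity labels are assigned by the sorting gate from which each nanobody was recovered. The gates were low and high (top ~1%), set on anti-HA fluorescence for expression and streptavidin fluorescence for reagent binding. Before sorting, galactose-induced (36–48 hours) yeast display cells were stained for 1 hour at 4 °C with 10% biotinylated, detergent-solubilized Sf9 membrane reagent.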
row,Sequence,polyreactivity (PSR sort gate)
1,QVQLVESGGGLVQAGGSLRLSCAASGRIFKTYAMGWYRQAPGKERELVAGISWRGGSTYYADSVKGRFTISRDNAKNTVYLQMNSLKPEDTAVYYCAADDTYTRYDYWGQGTQVTVSS,high polyreactivity
2,QVQLVESGGGLVQAGGSLRLSCAASGRIFTSYTMGWYRQAPGKERELVAAIDWSGGTTYYADSVKGRFTISRDNAKNTVYLQMNSLKPEDTAVYYCAALYVKVGYYTYEYWGQGTQVTVSS,low polyreactivity
3,QVQLVESGGGLVQAGGSLRLSCAASGYTFRAYAMGWYRQAPGKEREFVAAISRSGGSTYYADSVKGRFTISRDNAKNTVYLQMNSLKPEDTAVYYCARRYARITPVYPPLNYWGQGSQVTVSS,high polyreactivity
4,QVQLVESGGGLVQAGGSLRLSCAASGLIFTNYAMGWYRQAPGKERELVAGISTRGTSTYYADSVKGRFTISRDNAKNTVYLQMNSLKPEDTAVYYCAAVHRVVRAYDYWGQGTQVTVSS,high polyreactivity
5,QVQLVESGGGLVQAGGSLRLSCAASGTIFTNAMGCYRQEPGKERQLVAAISSSGGSTYYADSVKGRFTISRDNAKNTVYLQMNSLKPEDTAVYYCAADGEVSLWTGYDYDYWGKGTQVTVSS,low polyreactivity
6,QDQLVESGGGVVQAGGSLRLSCAASGSTFEYNAMGWYRQAPGKERELVASSTNYADSVKGRFTISRDNAKNTVYLQMNSLKPEDTAVYYCGREQGVNRNHDYWGQGTQVTVSS,low polyreactivity
7,QVQLVESGGGLVQAGGSLRLSCAASGRIFGFYALGWYRQAPGKEREFVASISVRGASTYADSVKGRFTISRDNAKNTVYLQMYSLKPEDTAVYYCNKAVANDDGLEYWGQGTQVTVSS,high polyreactivity
8,QVQLVESGGGLVQAGGSLRLSCAASGIIFRYYAMGWYRQAPGKERELVAAITSRGGSTYYADSVKGRFTISRDNAKNTVYLQMNSLKPEDTAVYYCATAYYYFSTSRADGEYWGQGTQVTVSS,high polyreactivity
9,QVQLVESGGGLVQAGGSLRLSCAASGFTFASNAMGWYRQAPGKERELVADITNTGSTYYADSVKGRFTISRDNAKNTVYLQMNSLKPEDTAVYYCAARSRDVTDGQRISAPHGYWGQGTQVTVSS,low polyreactivity
10,QVQLVESGGGLVQAGGSLRLSCAASGLIFYSYAMGWYRQAPGKERELVAAINGGGGSTYYADSVKGRFTISRDNAKNTVYLQMNSLKPEDTAVYYCAAVRSIVDWGLMYYWGQGTQVTVSS,high polyreactivity
11,QVQLVESGGGLVQAGGSLRLSCAASGYTFKVYAMGWYRQAPGKERELVAAIRSSGGSTYADSVKGRFTISRDNAKNTVYLQMNSLKPEDTAVYYCAKAGYVSGLYSATRYEYWGQGTQVTVSS,low polyreactivity
12,QVQLVESGGGLVQAGGSLRLSCAASGRTFLPNDMGWYRQAPGKERELVAAITDSGGDTYYADSVKGRFTISRDNAKNTVYLQMNSLKPEDTAVYYCAADYYYYGSYYPVEYWGQGTQVTVSS,high polyreactivity
13,QVQLVESGGGLVQAGVSLRLSCAASGSTFYRKTMGWYIQAPGKERELVAAISSSGGSTYYADSVNGRFTISRDNAKNTVYLQMNSLKPEDTAVYYCADTYSPFDFYYWRQGTQVTVSS,low polyreactivity
14,QVQLVESGGGLFQAGGSLRLSCAASGFTFIYYAMGSYRQAPGKATELVSAITHSGGSTYYADSVKGRFTISRDNAKTTVSLQMNSLNPEDTAVYYCAARLTWSRYQKYRTSSWQSYYWGQGTQVTVSS,high polyreactivity
15,QVQLVEAGRGLVQAGGSLRLSCAASGRTIDHYAMGWYRQAPGKERELVAAMSPTGGSTYYADSVKGRFTISRDNAKNSVYLQMNSLKPEDTAVYYCNARYYFYSATVDRYYHFYYWGQGTQVTVSS,high polyreactivity
16,QVQLVESAGGLVQAGGSLRLSCAASGSTFSRYAMGWSRQAPGNERELVAAISSGGNTYDADSVKGRFTISRDNAKNTVYLQMNSLKPEDTPVYYCIADRYTWYPWTKCFYYWGQGTHVTVSS,high polyreactivity

row,Sequence,polyreactivity (PSR sort gate)
1,QVQLVESGGGLVQAGGSLRLSCAASGRTFPYYAMGLYRQAPGKERELVATITRGGSTYYADSVKGRFTISRDNAKNTVYLQMNSLKPEDTAVYYCAVDAYYEMDYWGQGTQLTVSS,low polyreactivity
2,QVQLVESGGGLVQAGGSLRLSCAASGSIFWRNAMGWYRQAPGKERELVAAITSGGSTYYADSVKGRFTISRDNAKNTVYLQMNSLNPEDTAVYYCAAGYSYRYGYWGQGTQVTVSS,low polyreactivity
3,QVQLVESGGGLVQAGGSLRLSCAASGSIFSSYSMGWYRQAPGKERELVAAISSGDSTYYADSVKGRFTISRDNAKNTVYLQMNSLKPEDTAVYYCAAPWYAWGQGTQVTVSS,low polyreactivity
4,QVQLVESGGGLLQAGGSLRLSCAASGSIFGDNAMVWYRQAPWKERDLVATISSSDASTYYADSVKGRFTISRDNAKNTVNLQMNSLKPEDTAVYYCAKEVTAGYHVWYDYWGQGTQVTVSS,low polyreactivity
5,QVQLVESAGGLVQAGGSLRLSCAASGSTFYFNAMGWYRQAPGKERELVAAISGGGGTNYADSVKGRFTISRDNAKNTVYLQMTSLKPEDTAVYYCAARNRGLRLSNYFGGNYNRDYWGQGTQVTVSS,low polyreactivity
6,QVQLVESGGGIGQAGGSLRLSCAASGFTFSRYTMAWFRRAPGKERELVAAINRRGGSTYYADSVKGRFTISRDNAKNTVYLQMNCEKPEDTAVYYCAATYTVRSGNGIANDYWGQGTQVTVSS,high polyreactivity
7,QVQLGESGGGLVQAGGSLRLSCAASAYIFGSYAMGRSRQAAGKERELVATISYRAGRTYYADSVKGRFTISRDNAKNTVYLQMNSLKPEYTAVYFSDADFVIDLEYDYWGQGTQVTVSS,low polyreactivity
8,QVQLVESGGGLVQAGGSLRFSCAASGSIFSVYAMGGYRQAPGKERELVASITSGGRTKYADSVKGRFTISRDNAKNTVYLQMNSLKPEDTAVYYCAAGTTWRYGGKYNYWGQGTQVTVSS,low polyreactivity
9,QVQLVESGGGLVQAGRSLRLSCAASGFTFRWYGMGWYRQAPGKERELVAAISWSGGTTYYADSVKGRFTISRDNAKKTVYLQMNSLKAEDTAVYYCAASFQTFASRYDYWGQGTQVTVSS,high polyreactivity
10,QVQLVESGGGLVQAGGSLRLSCAASGIIFYYNALGWYRQAPGKERELVAAIDDRGDSTYYADSVKGRFTISRDNAKNTVYLQMNSLKPEDTAVYYCAADRYVQLLGYFFEYDYWGQGTQVTVSS,low polyreactivity
11,QVQLVESGGGLVQAGGSLRLSCAASGRTFYGNGMGWYRQAPGKRELVAAISYSGASTYYADSVKGRFTISRDNAKNTVCLLMNSLKPEDTAVYYCAAQPSVYCSLFTRASEDYWGQGTQVTVSS,high polyreactivity
12,QVQLVESGGGLVQAGGSLRLSCAASGSTFLDYDMGWYRQAPGKERELVATINSVGSTYYADSVKGRFTISRDNAKNTVYLQMKSLKPEDTAVYYCAASQEPGWYPDVWWEYDYWGQGTQVTVSS,low polyreactivity
13,QVQLVESGVGLVQAGGSRRLSCAASGRTFFDNVMGWYRQAPGKERELVAAIRSAGTTYYADSVKGRFTISRDNAKNTVYLQMNRLKPEDTAVYYCAATNRYYWSYFYQAKYGYWGQGTQVTVSS,low polyreactivity
14,QVQLVESGGGLVQAGGSLRLSCAASGSTFSRNAMGWYRQAPGKERELVAGITTSGGRTYYADSVKGRFTISRDNAKNTVYLQMNSLKPEDTAVYYCANSGYRYFYGRPRFDYWGQGTQVTVSS,high polyreactivity
15,QGQLVESGGGLVQAGGSLRLSSAASGNTFYGYAMGWYRQSPGKERELVASITLSGDSTYYADSVKGRFTISRDNAKNTVYLQMNSLKPEDTAVYYWAGVYTYPLGYYHYTYDYWGQGTQVTVSS,low polyreactivity
